Biological target: endogenous Miro1 of COS7 cells (monkey (endogenous in COS7))
Test: co-IP; COS7 cells co-transfected with FLAG-TRAK1 plus Myc-DISC1 or Myc-DISC1-37W, or empty vectors; IP with Miro1 antibody (endogenous Miro1); for quantification IP buffer with 0.1% SDS

Sequence of endogenous Miro1 of COS7 cells (monkey (endogenous in COS7)) (Q8IXI2 whole entry): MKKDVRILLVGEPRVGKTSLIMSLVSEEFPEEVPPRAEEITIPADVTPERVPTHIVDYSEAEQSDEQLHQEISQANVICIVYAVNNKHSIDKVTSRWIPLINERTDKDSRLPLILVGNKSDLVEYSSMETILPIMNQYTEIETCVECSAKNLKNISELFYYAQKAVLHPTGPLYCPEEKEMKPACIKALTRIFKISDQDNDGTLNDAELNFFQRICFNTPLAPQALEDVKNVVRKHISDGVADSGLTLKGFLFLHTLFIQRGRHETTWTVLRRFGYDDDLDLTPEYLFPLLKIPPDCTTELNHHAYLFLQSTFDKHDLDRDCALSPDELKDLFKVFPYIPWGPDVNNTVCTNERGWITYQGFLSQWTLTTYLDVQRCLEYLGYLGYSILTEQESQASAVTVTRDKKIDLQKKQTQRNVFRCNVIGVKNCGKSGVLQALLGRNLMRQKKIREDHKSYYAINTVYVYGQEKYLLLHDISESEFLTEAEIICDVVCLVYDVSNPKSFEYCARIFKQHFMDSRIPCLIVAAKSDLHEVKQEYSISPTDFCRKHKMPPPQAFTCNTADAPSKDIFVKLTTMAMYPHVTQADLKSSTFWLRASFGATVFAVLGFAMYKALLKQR

decrease of co-IP in cells expressing Myc-DISC1-37W against cells expressing Myc-DISC1: 20%
B1: FLAG-tagged TRAK1 (trafficking-protein-Kinesin-binding-1), aa 2-953, in COS7 (natural protein)
chain: ALVFQFGQPVRAQPLPGLCHGKLIRTNACDVCNSTDLPEVEIISLLEEQLPHYKLRADTIYGYDHDDWLHTPLISPDANIDLTTEQIEETLKYFLLCAERVGQMTKTYNDIDAVTRLLEEKERDLELAARIGQSLLKKNKTLTERNELLEEQVEHIREEVSQLRHELSMKDELLQFYTSAAEESEPESVCSTPLKRNESSSSVQNYFHLDSLQKKLKDLEEENVVLRSEASQLKTETITYEEKEQQLVNDCVKELRDANVQIASISEELAKKTEDAARQQEEITHLLSQIVDLQKKAKACAVENEELVQHLGAAKDAQRQLTAELRELEDKYAECMEMLHEAQEELKNLRNKTMPNTTSRRYHSLGLFPMDSLAAEIEGTMRKELQLEEAESPDITHQKRVFETVRNINQVVKQRSLTPSPMNIPGSNQSSAMNSLLSSCVSTPRSSFYGSDIGNVVLDNKTNSIILETEAADLGNDERSKKPGTPGTPGSHDLETALRRLSLRRENYLSERRFFEEEQERKLQELAEKGELRSGSLTPTESIMSLGTHSRFSEFTGFSGMSFSSRSYLPEKLQIVKPLEGSATLHHWQQLAQPHLGGILDPRPGVVTKGFRTLDVDLDEVYCLNDFEEDDTGDHISLPRLATSTPVQHPETSAHHPGKCMSQTNSTFTFTTCRILHPSDELTRVTPSLNSAPTPACGSTSHLKSTPVATPCTPRRLSLAESFTNTRESTTTMSTSLGLVWLLKERGISAAVYDPQSWDRAGRGSLLHSYTPKMAVIPSTPPNSPMQTPTSSPPSFEFKCTSPPYDNFLASKPASSILREVREKNVRSSESQTDVSVSNLNLVDKVRRFGVAKVVNSGRAHVPTLTEEQGPLLCGPPGPAPALVPRGLVPEGLPLRCPTVTSAIGGLQLNSGIRRNRSFPTMVGSSMQMKAPVTLTSGILMGAKLSKQTSLR
